From patent US20250376535A1 (BEIJING STARMAB BIOMED TECHNOLOGY, published 2025)

T1: recombinant human OX40-Fc (human, UniProt P43489 29-214)
T1 construct: also called rh-OX40-Fc; human OX40 hFC (R & D systems)
T1 sequence: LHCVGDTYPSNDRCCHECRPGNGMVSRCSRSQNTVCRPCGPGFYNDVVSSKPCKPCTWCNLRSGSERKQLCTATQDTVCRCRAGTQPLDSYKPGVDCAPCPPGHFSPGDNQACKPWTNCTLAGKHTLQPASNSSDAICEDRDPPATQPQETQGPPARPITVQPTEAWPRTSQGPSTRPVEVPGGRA

B1: pgEG6 (VHH, not shown: small tags and cut ends)
VHH: QVQLVESGGGLVQPGGSLRLSCVASGIIFEAEAMGWYRQAPGKQRESVAFIGSGGNTNVGWSVKGRFTISRDNAKNTVYLQMNSLKPEDTAVYYCNTHPLRSWGQGTQVTVSS
B2: pgEG1 (VHH, not shown: small tags and cut ends)
VHH: QVQLVESGGGLVQPGGSLRLSCAASGIIFEAEAMGWVRQAPGKQRESVAFIGSGGNTNVGWSVKGRFTISRDNAKNTLYLQMNSLRPEDTAVYYCNTHPLRSWGQGTQVTVS
B3: pgEG12 (VHH, not shown: small tags and cut ends)
VHH: QVQLVESGGGLVQAGGSLSLSCTASRNIFSINVMSWYRQAPGKQREFVASITREDFPYYTDSVKGRFTVTRDIANNKVHLQMNSLKLEDTAVYYCNAYYRSDNYWGQGTQVTVSS
B4: pgXX88-27 (VHH, not shown: small tags and cut ends)
VHH: EVQLVESGGGLVQPGGSVTLSCATSKDTFSRYHMGWFRQAAGKEREFVAAIANTGTTTDYADFVKGRFTISRDSAKNTVYLQMDSLKVEDTAMYYCVVGSQFMSYDYWGQGTQVTVSS
B5: pgXX88-16 (VHH, not shown: small tags and cut ends)
VHH: QVQLVESGGGLVQAGESLNLSCSASGSIRNNAVAWFRQGPGNQRLRVAAITNTGTTDYADSVQGRFSIARDNAENTVTLQMNSLKPEDTAIYYCKIYTLPVPISSHDDTWGQGTQVTVSS
B6: pgXX88-84 (VHH, not shown: small tags and cut ends)
VHH: EVQLVESGGRLVQAGDSLKLSCTASGRTFSDYVMGWFRQVPGEGRLMVAVITPAGDTTEYADAVKGRFSISKDSAKRTVNLQMNNLKVDDTAVYYCAAGPSWIGMQFGTAEYWGQGTQVTVSS
B7: pgXX88-2 (VHH, not shown: small tags and cut ends)
VHH: EVQLVESGGGLVQPGGSLRLSCAASGFAFGDIPMMWVRQAPGKGREWVSSISADSATQSYADSVQDRFTISRDNAKNTLYLEMHILKPEDTAVYYCATTDRPPPGQGTQVTVSS
B8: pgXX88-83 (VHH, not shown: small tags and cut ends)
VHH: EVQLVESGGGLVQTGDSLRLSCAALGGTPSTYAIGWFRQAAGKELQFVARITWNGDTWYADALPGRVAISRDNAKKTVYLQMNNLKPEDTAEYICAADVSEFRDIPNRDSRANYRYWGQGTQVTVSS
B9: pgXX88-81 (VHH, not shown: small tags and cut ends)
VHH: EVQLVESGGGLAQPGSSLRLSCTASGTVFSILSATWFRQAPGKAHEARELVAFISSDGVSMHADSVKGRFTISRDNAKSTVYLQMDNLQPEDTAAYYCKLSNSMMGMEYWGRGTQVTVSS
B10: pgXX88-5 (VHH, not shown: small tags and cut ends)
VHH: QVQLVESGGGLVQAGGSLRLSCAASGGTFSTYAMGWFRQAPGKEPQFVARITWSGYTLYTEPVQGRFAISRDNAKNTVYLQMNSLKPEDTAEYFCAADSSEFRDIPNRDSRANYRYWGQGTQVTVSS
B11: pgXX88-19 (VHH, not shown: small tags and cut ends)
VHH: EVQLVESGGGLVQAGGSLRLSCVATGRTRSSTYIMAWFRQAPGKERDFVAAISFIGGSPVYTDSVKGRFTISRVIAENTVHLQMNDLTPEDTALYYCAATDSGPLGPSGPSKYEYWGQGTQVTVSS
B12: pgXX88-60 (VHH, not shown: small tags and cut ends)
VHH: EVQLVESGGGLAQPGGSLRLSCAASGFTFSNYAMGWYRQAPGKEREFVAAIDWSTNALLYGDSVKGRFTISRDNAKNTVFLQMSGLKPEDTALYYCAADRAYHTVVLGPPEGMDYWGKGTQVTVSS
B13: pgDD40-HZ-58 (VHH, not shown: small tags and cut ends)
VHH: QVQLVESGGGLVQPGESLTLSCVTSGFVFSNHWMYWDRQAPGKGLEWVADINLGGEMTYYSNSVKGRFTISRDNAKNTVSLRMDNLKVEDTAVYFCAANQQTPPYGLGSREYDYDYWGQGTQVTVSS

These binders were tested against T2, EGFR (recombinant human, BLI antigen) (human, UniProt P00533 25-645) (assay: BLI (Octet) as in Example 1).
T2 construct: also called rh-EGFR; human EGFR

Compared with B1, B2 is 1.8-fold lower in Kd: 27.9 nM for the first, 15.6 nM for the second.

B3 showed a Kd of 12.5 nM.

Compared with B1, B2 is 5.6-fold lower in koff: 0.0136 s⁻¹ for the first, 0.00243 s⁻¹ for the second.

B3 showed a koff of 0.00251 s⁻¹.

Compared with B1, B2 is 3.1-fold lower in kon: 489000 M⁻¹ s⁻¹ for the first, 156000 M⁻¹ s⁻¹ for the second.

With B3 the kon was 201000 M⁻¹ s⁻¹.

Each binder was assayed against T1, recombinant human OX40-Fc (assay: ELISA, OX40-Fc coated, VHH at 8 nM).
Experimental: (§1) After four times washing with PBST, the plate was incubated with detecting antibody anti-his-HRP (1:4000 dilution) 100 μl per well for one hour with shaking at 60 rpm. The plate was developed with 100 μL of TMB per well in the dark and then stopped by 50 μL of stop solution per well. […] Data was analyzed using GraphPad Prisma 9.1.

First: B4
Second: B5
The OD450 of the first is lower: 1.34 for the first, 1.52 for the second.

Compared with B6, B7 is higher in OD450: 0.31 for the first, 1.63 for the second.

Compared with B8, B9 is higher in OD450: 0.183 for the first, 0.772 for the second.

Compared with B10, B11 is higher in OD450: 0.103 for the first, 1.54 for the second.

B12 was tested, and the OD450 was 0.668.

Each binder was assayed against T1, recombinant human OX40-Fc (assay: ELISA, OX40-Fc coated, VHH at 40 nM).
Experimental: as §1

Going from B4 to B5, the OD450 rises from 1.35 to 1.48.

Going from B6 to B7, the OD450 rises from 0.324 to 1.63.

Compared with B8, B9 is higher in OD450: 0.252 for the first, 0.75 for the second.

Going from B10 to B11, the OD450 rises from 0.242 to 1.61.

For B12, the OD450 was 0.718.

The binders below were run against T1, recombinant human OX40-Fc (assay: ELISA, OX40-Fc coated, VHH at 1.6 nM).
Experimental: as §1

First: B4
Second: B5
The OD450 of the first is lower: 1.02 for the first, 1.4 for the second.

Compared with B6, B7 is higher in OD450: 0.29 for the first, 1.46 for the second.

Going from B8 to B9, the OD450 rises from 0.147 to 0.743.

Compared with B10, B11 is higher in OD450: 0.065 for the first, 1.38 for the second.

B12 gave an OD450 of 0.641.

What follows are binders tested against T1, recombinant human OX40-Fc (assay: ELISA, OX40-Fc coated, VHH at 200 nM).
Experimental: as §1

First: B4
Second: B5
The OD450 of the first is lower: 1.3 for the first, 1.61 for the second.

Compared with B6, B7 is higher in OD450: 0.296 for the first, 1.66 for the second.

Going from B8 to B9, the OD450 rises from 0.243 to 0.666.

Going from B10 to B11, the OD450 rises from 0.543 to 1.62.

B12 showed an OD450 of 0.61.

What follows are binders tested against T1, recombinant human OX40-Fc (assay: ELISA, OX40-Fc coated, VHH at 0.32 nM).
Experimental: as §1

First: B4
Second: B5
The OD450 of the first is lower: 0.334 for the first, 0.992 for the second.

Compared with B6, B7 is higher in OD450: 0.175 for the first, 0.719 for the second.

Compared with B8, B9 is higher in OD450: 0.072 for the first, 0.617 for the second.

First: B10
Second: B11
The OD450 of the first is lower: 0.058 for the first, 0.717 for the second.

With B12 the OD450 was 0.596.

What follows are binders tested against T1, recombinant human OX40-Fc (assay: ELISA, OX40-Fc coated, VHH at 1000 nM).
Experimental: as §1

Going from B4 to B5, the OD450 rises from 1.39 to 1.61.

Compared with B6, B7 is higher in OD450: 0.34 for the first, 1.67 for the second.

Compared with B8, B9 is higher in OD450: 0.504 for the first, 0.772 for the second.

Compared with B10, B11 is higher in OD450: 1.09 for the first, 1.69 for the second.

Work on B12 yielded an OD450 of 0.713.

These binders were tested against T1, recombinant human OX40-Fc (assay: ELISA, OX40-Fc coated, VHH at 0.064 nM).
Experimental: as §1

Compared with B4, B5 is higher in OD450: 0.115 for the first, 0.447 for the second.

Going from B6 to B7, the OD450 rises from 0.085 to 0.183.

First: B8
Second: B9
The OD450 of the first is lower: 0.063 for the first, 0.262 for the second.

Compared with B10, B11 is higher in OD450: 0.057 for the first, 0.282 for the second.

In the case of B12, the OD450 is reported as 0.284.

The binders below were run against T1, recombinant human OX40-Fc (assay: ELISA, OX40-Fc coated, VHH at 0.0128 nM).
Experimental: as §1

First: B4
Second: B5
The OD450 of the first is lower: 0.155 for the first, 0.169 for the second.

First: B6
Second: B7
The OD450 of the first is lower: 0.057 for the first, 0.077 for the second.

Compared with B8, B9 is higher in OD450: 0.05 for the first, 0.06 for the second.

First: B10
Second: B11
The OD450 of the first is lower: 0.057 for the first, 0.126 for the second.

Work on B12 yielded an OD450 of 0.057.

What follows are binders tested against T1, recombinant human OX40-Fc (assay: BLI, VHH-His on anti-His tips, OX40 hFc in solution;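 further: kinetics recorded at 30 °C in PBS pH 7.2, with 200 s of association followed by dissociation monitored in PBS lacking the OX40 protein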).
Experimental: Bio-Layer Interferometry (BLI) kinetic binding analysis. […] Affinity measurements were performed with Gator equipped with Anti-Penta-His capture (HIS1K) biosensor tips. The assay was performed at 30° C. in 1×PBS buffer (Gibco®, PBS pH7.2). Samples were agitated at 1000 rpm. Prior to analysis, sensors were humidified for 15 min. Purified anti-OX40 VHH was tested for its binding capacity with HIS1K sensor tips. Tips were loaded using 20 μg/ml of anti-OX40 VHH. Loading proceeded for 300 s resulting in capture levels of between 1.8 and 2 nm. […] Association was initiated and monitored for 200 sec, after which tips were transferred to 1×PBS buffer without Factor protein (Gibco, PBS pH 7.2), in order to monitor dissociation. Sensor data was collected throughout the experiments, processed, and analyzed using the Gator data analysis software.

First: B6
Second: B7
The Kd of the first is lower: under 0.001 nM for the first, 0.485 nM for the second.

Going from B8 to B9, the Kd falls from 0.0526 nM to under 0.001 nM. The second binds more tightly here.

B12 was tested, and the Kd was under 0.001 nM.

First: B6
Second: B7
The koff of the first is 230-fold lower: 1e-06 s⁻¹ for the first, 0.00023 s⁻¹ for the second.

Compared with B8, B9 is 24-fold lower in koff: 2.42e-05 s⁻¹ for the first, 1e-06 s⁻¹ for the second.

For B12, the koff was 1e-06 s⁻¹.

B6 and B7 are within 1.5-fold of each other in kon: 494000 M⁻¹ s⁻¹ for the first, 474000 M⁻¹ s⁻¹ for the second.

B8 and B9 are within 1.5-fold of each other in kon: 460000 M⁻¹ s⁻¹ for the first, 549000 M⁻¹ s⁻¹ for the second.

Work on B12 yielded a kon of 464000 M⁻¹ s⁻¹.

Each binder was assayed against T3, Human CD40 antigen (recombinant, BLI) (human, UniProt P25942 21-193) (assay: BLI, VHH-His on anti-His tips, human CD40 in solution;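 further: kinetics measured at 30 °C in PBS pH 7.2, association tracked for 200 s, then dissociation followed in PBS lacking CD40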).
T3 construct: also called rh-CD40
T3 sequence (P25942 21-193 limits assumed): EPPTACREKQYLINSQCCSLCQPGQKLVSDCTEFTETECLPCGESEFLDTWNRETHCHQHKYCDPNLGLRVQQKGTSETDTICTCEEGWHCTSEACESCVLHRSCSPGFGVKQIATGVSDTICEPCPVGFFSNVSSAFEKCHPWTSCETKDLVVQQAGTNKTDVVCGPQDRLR
Experimental: Bio-Layer Interferometry (BLI) kinetic binding analysis. […] Affinity measurements were performed with Gator equipped with Anti-Penta-His capture (HIS1K) biosensor tips. The assay was performed at 30° C. in 1×PBS buffer (Gibco®, PBS pH7.2). Samples were agitated at 1000 rpm. Prior to analysis, sensors were humidified for 15 min. […] Sensor data was collected throughout the experiments, processed, and analyzed using the Gator data analysis software.
Briefly, purified anti-CD40 VHH was tested for its binding capacity with HIS1K sensor tips. Tips were loaded using 20 μg/ml of anti-CD40 VHH. Loading proceeded for 300 sec resulting in capture levels of between 1.8 and 2 nm. […] Association was initiated and monitored for 200 sec, after which tips were transferred to 1×PBS buffer without CD40 protein in order to monitor dissociation.

In the case of B13, the Kd is reported as 0.0406 nM.

For B13, the koff was 3.32e-05 s⁻¹.

Binder B13 has a kon of 818000 M⁻¹ s⁻¹.
